The test has as its target T1, ADP-ribosyl cyclase 2 (BST1), human, cell-surface (human, UniProt Q10588 33-293).
T1 construct: Endogenous BST1 on A549, H226 and U937 cells and on blood cells of AML patients; also called CD157; Bone marrow stromal antigen 1
T1 sequence: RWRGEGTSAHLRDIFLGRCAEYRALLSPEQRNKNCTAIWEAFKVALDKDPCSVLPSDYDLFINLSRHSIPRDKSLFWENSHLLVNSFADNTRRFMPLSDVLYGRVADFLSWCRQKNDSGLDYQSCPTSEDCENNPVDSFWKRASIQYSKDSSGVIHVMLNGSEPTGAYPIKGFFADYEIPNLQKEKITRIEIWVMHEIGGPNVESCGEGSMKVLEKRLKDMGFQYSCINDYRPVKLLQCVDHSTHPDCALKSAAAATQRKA
Description: flow cytometry on BST1-expressing A549 and H226 cells. The method, then: The specificity of antibodies against the BST1 selected in Example 6 was also tested by flow cytometry. To test the ability of the antibodies to bind to the cell surface BST1 protein, the antibodies were incubated with the BST1-expressing cells, H226 (human lung squamous carcinoma) and A549 (human lung adenocarinoma). Cells were washed in FACS buffer (DPBS, 2% FBS), centrifuged and resuspended in 100 μl of the diluted primary BST1 antibody (also diluted in FACS buffer). The antibody-A549 complex and antibody-H226 complex were incubated on ice for 60 min and then washed twice with FACS buffer as described above. The cell-antibody pellet was resuspended in 100 μl of the diluted secondary antibody (also diluted in FACS buffer) and incubated on ice for 60 min on ice. The pellet was washed as before and resuspended in 200 μl FACS buffer. The samples were loaded onto the BD FACScanto II flow sytometer and the data analyzed using the BD FACSdiva software. The binding of BST1_[…] and BST1_A2 to BST1 expressed on A549 and H226 cells were analysed using flow cytometry.
On the technique in general: In flow cytometry, cells or beads pass a laser one at a time.

We go through one molecule from patent publication US20140193333A1 (OXFORD BIOTHERAPEUTICS, published 2014).

B1: BST1_A1 anti-BST1 monoclonal antibody (Fab, V domains shown)
VH: QVKLQQSGAELVRPGSSVKISCKASGYAFSNSWINWVKQRPGQGLEWIGQIYPGDYDTNYNGKFKGKATLTADYSSSTAYMQLNSLTSEDSAVYFCARGGSIYYGNLGFFDVWGAGTTVTVSS
VL: EMVLTQSPAIMSTSLGERVTMTCTASSRVSSSYLHWYQQKPGSSPKLWIYSTSNLASGVPARFSGSGSGTSYSLTISSMEAEDAATYYCHQYHRSPYTFGGGTKLEIKR
As for B1, the binding result is reported as “binds”.
